Laboratory results: patent publication US10100114B2, “Antibodies specific for TROP-2 and their uses” (RINAT NEUROSCIENCE CORP., priority 2011, dated 2018)

Columns and labels:
[1] = system: ovarian cancer patient derived xenograft (PDX Ova196756); assay: In vivo efficacy of Trop-2 ADC, ovarian PDX Ova196756; parameters: species or system CB17/SCID mice; settings: single dose, […] and 1.5 mg/kg, tail vein; FIG. 11
Experimental: This tumor sample was derived from surgical specimen and propagated in NSG mice (Jackson Laboratories, Bar Harbor, Me.). For efficacy studies, approximately 1-2 mm^3 of tumor fragments were implanted subcutaneously into the lateral flanks of CB17/SCID mice. […] Tumor volume was measured once a week by a caliper device and calculated with the following formula: Tumor volume=(length×width^2)/2. Studies were terminated before their tumor volumes reached 2000 mm^3.

[2] = system: pancreatic cancer patient derived xenograft (PDX Pan0146); assay: In vivo efficacy of Trop-2 ADC, pancreatic PDX Pan0146
Experimental: In vivo efficacy studies of Trop-2 ADC using humanized anti-Trop-2 antibody (h7E6SVG) conjugated with TG6-vc0101 were performed with target-expressing pancreatic cancer patient derived xenograft model (PDX Pan0146) from Jackson Laboratories (Bar Harbor, Me.). For efficacy studies, 1-2 mm^3 of tumor fragments were implanted subcutaneously into the lateral flanks of the animals. […] Gemcitabine was given at 75 mg/kg twice weekly for a total of 6 doses. […] Gemcitabine was given once weekly at 75 mg/kg for 4 doses. Tumor volume was measured once a week by a Caliper device and calculated with the following formula: Tumor volume=(length×width^2)/2. Studies were terminated before their tumor volumes reached 2000 mm^3.

BxPC3 xenograft = assay: In vivo efficacy of humanized Trop-2 ADCs, pancreatic tumor BxPC3 xenograft model; parameters: species or system CB17/SCID mice; settings: single dose, tail vein; FIGS. 9A-9C
Experimental: In vivo efficacy studies of Trop-2 ADCs were performed with target-expressing BxPC3 xenograft model. Two million BxPC3 pancreatic cancer cells were implanted subcutaneously into 5-8 weeks old CB17/SCID mice until the tumor sizes reached between 300-400 mm^3. […] Tumor volume was measured once a week by a Caliper device and calculated with the following formula: Tumor volume=(length×width^2)/2. Studies were terminated before their tumor volumes reached 2000 mm^3.

Colo205 xenograft = assay: In vivo efficacy of Trop-2 ADCs, colorectal tumor Colo205 xenograft model; parameters: species or system nu/nu mice; settings: single dose of 6 mg/kg, tail vein; FIG. 10
Experimental: In vivo efficacy study of Trop-2 ADCs was performed with target-expressing colo205 xenograft model. Three millions of colo205 colon cancer cells were implanted subcutaneously into 5-8 weeks old nu/nu mice until the tumor sizes reached ˜300 mm^3. […] Tumor volume is measured once a week by a Caliper device and calculated with the following formula: Tumor volume=(length×width^2)/2. Studies were terminated before their tumor volumes reached 2000 mm^3.

[3] = system: SW620 cells (Trop-2 non-expressing); assay: Cytotoxicity of ADCs (CellTiter-Glo), SW620; type: cell-based; settings: Table 13; SW620, Trop2 expression −; 96 hours; concentration of total Ab
Experimental: Target expressing (A431, BxPC3, CAPAN-2 and Colo205) or non-expressing (SW620) cells were seeded on white walled clear bottom plates at 2000 cells/well for 24 hours before treatment. Cells were treated with 4 fold serially diluted antibody-drug conjugates in triplicates. Cell viability was determined by CellTiter-Glo® Luminescent Cell Viability Assay 96 (Promega, Madison Wis.) 96 hours after treatment. Relative cell viability was determined as percentage of untreated control. IC50 was calculated by Prism software.
2-methylalanyl-N-[(3R,4S,5S)-3-methoxy-1-{(2S)-2-[(1R,2R)-1-methoxy-2-methyl-3-oxo-3-{[(1S)-2-phenyl-1-(1,3-thiazol-2-yl)ethyl]amino}propyl]pyrrolidin-1-yl}-5-methyl-1-oxoheptan-4-yl]-N-methyl-L-valinamide is a novel auristatin, as described in U.S. Application Nos. 61/561,255 and 61/676,423. Method of conjugating Trop-2 antibodies using transglutaminase tags is described in Example 9. Target expressing or non-expressing (SW620) cells were seeded on white walled clear bottom plates at 2000 (A431, BxPC3, NCI-H292, NCI-H1650, MDA-MB-468 and SW620), 2500 (Calu-3) or 3000 (OVCAR3 and SKBR3) cells per well for 24 hours before treatment. Cells were treated with 4 fold serially diluted antibody-drug conjugates in triplicates. Cell viability was determined by CellTiter-Glo® Luminescent Cell Viability Assay 96 (Promega, Madison, Wis.) 96 hours after treatment. Relative cell viability was determined as percentage of untreated control. IC50 was calculated by GraphPad Prism 5 software and expressed as concentration (nM) of total Ab.

[4] = system: pancreatic cancer patient derived xenograft (PDX Pan0135); assay: In vivo efficacy of Trop-2 ADC, pancreatic PDX Pan0135; settings: 6 mg/kg single dose, tail vein; FIG. 14
Experimental: In vivo efficacy study of Trop-2 ADC using humanized anti-Trop-2 antibody (h7E6SVG) conjugated with PEG6MMAD was performed with target-expressing pancreatic cancer patient derived xenograft model (PDX Pan0135) from Jackson Laboratories. For efficacy studies, approximately 1-2 mm^3 of tumor fragments were implanted subcutaneously into the lateral flanks of the animals. Animals were randomized by tumor sizes once they reached ˜300 mm^3 and 6 mg/kg of h7E6SVG-N297Q/K222R-PEG6MMAD and the control conjugate were administered through bolus tail vein injection with single dose. Tumor volume was measured once a week by a Caliper device and calculated with the following formula: Tumor volume=(length×width^2)/2. Studies were terminated before their tumor volumes reached 2000 mm^3.

[5] = system: pancreatic cancer patient derived xenograft (PDX Pan144607); assay: In vivo efficacy of Trop-2 ADC, pancreatic PDX Pan144607; parameters: species or system CB17/SCID mice; settings: single dose of 1.5, 3.0 and 6.0 mg/kg, tail vein; FIG. 13
Experimental: In vivo efficacy study of Trop-2 ADC using humanized anti-Trop-2 antibody (h7E6SVG) conjugated with vc0101 or PEG6MMAD was performed with target-expressing pancreatic cancer patient derived xenograft model (PDX Pan144607). This tumor sample was derived from surgical specimen and propagated in NSG mice (Jackson Laboratories, Bar Harbor, Me.). For efficacy studies, approximately 1-2 mm^3 of tumor fragments were implanted subcutaneously into the lateral flanks of CB17/SCID mice. Animals were randomized by tumor sizes once they reached ˜300 mm^3, and single dose of 1.5, 3.0 and 6.0 mg/kg h7E6SVG-N297Q/K222R-PEG6MMAD and the control conjugate were administered through bolus tail vein injection. Tumor volume was measured once a week by a Caliper device and calculated with the following formula: Tumor volume=(length×width^2)/2. Studies were terminated before their tumor volumes reach 2000 mm^3.

Molecule | tumor response, ovarian PDX Ova196756 [1] | tumor response on continuous dosing, Pan0146 PDX ([2]; […] weekly x4, 1.5 mg/kg bi-weekly x2 or 3.0 mg/kg single dose, FIG. 12B) | efficacy to induce tumor regression compared with gemcitabine, Pan0146 PDX ([2]; single dose vs gemcitabine 75 mg/kg twice weekly, 6 doses, FIG. 12A) | tumor response, BxPC3 xenograft (BxPC3 xenograft) | tumor response, Colo205 xenograft (Colo205 xenograft) | IC50 [3] [nM] | tumor response, Pan0135 PDX [4] | tumor response, Pan144607 PDX [5]
h7E6SVG-TG6-vc0101: h7E6SVG with heavy chain C-terminal TG6 tag (SEQ ID NO: 79) conjugated with AcLys-vc-PABC-0101 (conjugate) VH: QVQLQESGPGLVKPSETLSLTCTVSGGSISSYGVHWIRQPPGKGLEWIGVIWTSGVTDYNSALMGRVTISVDTSKNQFSLKLSSVTAADTAVYYCARDGDYDRYTMDYWGQGTLVTVSS VL: DIVMTQSPDSLAVSLGERATINCRASKSVSTSGYSYMHWYQQKPGQPPKLLIYLASNLESGVPDRFSGSGSGTDFTLTISSLQAEDVAVYYCQHSRELPYTFGQGTKLEIK | tumor regression | sustained tumor regression | superior efficacy to gemcitabine | tumor regression | tumor regression | 156 |  | 
h7E6SVG-N297Q/K222R-PEG6MMAD: h7E6SVG with N297Q/K222R mutations conjugated with PEG6-propionyl-MMAD (conjugate) VH: QVQLQESGPGLVKPSETLSLTCTVSGGSISSYGVHWIRQPPGKGLEWIGVIWTSGVTDYNSALMGRVTISVDTSKNQFSLKLSSVTAADTAVYYCARDGDYDRYTMDYWGQGTLVTVSS VL: DIVMTQSPDSLAVSLGERATINCRASKSVSTSGYSYMHWYQQKPGQPPKLLIYLASNLESGVPDRFSGSGSGTDFTLTISSLQAEDVAVYYCQHSRELPYTFGQGTKLEIK |  |  |  | tumor regression |  | > 267 | tumor regression | tumor regression
